Measurements from PMC10397247.

Experiments:
O4 = target: T1, O4; assay: two-hybrid library CCNG1;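 also: natural log of median RNA to DNA barcode read ratio; higher means stronger binding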
T1 chain: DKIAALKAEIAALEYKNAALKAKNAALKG

O5 = target: T2, O5; assay: two-hybrid library CCNG1;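 also: natural log of median RNA to DNA barcode read ratio; higher means stronger binding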
T2 chain: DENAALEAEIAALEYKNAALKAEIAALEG

O6 = target: T3, O6; assay: two-hybrid library CCNG1;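 also: natural log of median RNA to DNA barcode read ratio; higher means stronger binding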
T3 chain: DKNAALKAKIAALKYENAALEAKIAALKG

O7 = target: T4, O7; assay: two-hybrid library CCNG1;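 also: natural log of median RNA to DNA barcode read ratio; higher means stronger binding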
T4 chain: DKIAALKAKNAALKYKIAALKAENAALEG

O8 = target: T5, O8; assay: two-hybrid library CCNG1;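 also: natural log of median RNA to DNA barcode read ratio; higher means stronger binding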
T5 chain: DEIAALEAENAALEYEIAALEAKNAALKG

O9 = target: T6, O9; assay: two-hybrid library CCNG1;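 also: natural log of median RNA to DNA barcode read ratio; higher means stronger binding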
T6 chain: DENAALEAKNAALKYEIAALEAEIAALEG

4H2717-bN = target: T7, 4H2717-bN; assay: two-hybrid library CCNG1
T7 chain: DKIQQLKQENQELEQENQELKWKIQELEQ

4H2839-bN = target: T8, 4H2839-bN; assay: two-hybrid library CCNG1
T8 chain: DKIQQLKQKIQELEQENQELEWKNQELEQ

4H2915-bN = target: T9, 4H2915-bN; assay: two-hybrid library CCNG1
T9 chain: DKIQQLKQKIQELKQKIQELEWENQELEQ

4H3057-bN = target: T10, 4H3057-bN; assay: two-hybrid library CCNG1
T10 chain: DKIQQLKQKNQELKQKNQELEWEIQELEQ

4H319-bN = target: T11, 4H319-bN; assay: two-hybrid library CCNG1
T11 chain: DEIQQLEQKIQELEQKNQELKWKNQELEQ

4H3277-bN = target: T12, 4H3277-bN; assay: two-hybrid library CCNG1
T12 chain: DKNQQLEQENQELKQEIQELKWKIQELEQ

4H348-bN = target: T13, 4H348-bN; assay: two-hybrid library CCNG1
T13 chain: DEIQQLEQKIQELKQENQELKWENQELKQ

4H40-bN = target: T14, 4H40-bN; assay: two-hybrid library CCNG1
T14 chain: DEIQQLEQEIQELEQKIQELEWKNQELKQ

4H477-bN = target: T15, 4H477-bN; assay: two-hybrid library CCNG1
T15 chain: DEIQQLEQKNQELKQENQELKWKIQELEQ

4H492-bN = target: T16, 4H492-bN; assay: two-hybrid library CCNG1
T16 chain: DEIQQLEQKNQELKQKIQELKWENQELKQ

4H741-bN = target: T17, 4H741-bN; assay: two-hybrid library CCNG1
T17 chain: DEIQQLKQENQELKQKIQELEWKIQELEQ

4H2248-AA = target: T18, 4H2248-AA; assay: two-hybrid library CCmax
T18 chain: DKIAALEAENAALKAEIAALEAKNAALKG

4H2283-AA = target: T19, 4H2283-AA; assay: two-hybrid library CCmax; conditions: mean of both orientations
T19 chain: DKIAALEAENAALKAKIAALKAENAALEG

4H2713-AA = target: T20, 4H2713-AA; assay: two-hybrid library CCmax; conditions: mean of both orientations
T20 chain: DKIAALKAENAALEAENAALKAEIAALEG

4H2742-AA = target: T21, 4H2742-AA; assay: two-hybrid library CCmax; conditions: mean of both orientations
T21 chain: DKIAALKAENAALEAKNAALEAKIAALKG

4H2948-AA = target: T22, 4H2948-AA; assay: two-hybrid library CCmax; conditions: mean of both orientations
T22 chain: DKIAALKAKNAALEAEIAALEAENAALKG

4H2991-AA = target: T23, 4H2991-AA; assay: two-hybrid library CCmax; conditions: mean of both orientations
T23 chain: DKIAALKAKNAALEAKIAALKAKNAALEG

4H3029-AA = target: T24, 4H3029-AA; assay: two-hybrid library CCmax; conditions: mean of both orientations
T24 chain: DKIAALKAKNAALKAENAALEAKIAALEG

4H3066-AA = target: T25, 4H3066-AA; assay: two-hybrid library CCmax; conditions: mean of both orientations
T25 chain: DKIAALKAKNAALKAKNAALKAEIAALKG

4H3102-AA = target: T26, 4H3102-AA; assay: two-hybrid library CCmax; conditions: mean of both orientations
T26 chain: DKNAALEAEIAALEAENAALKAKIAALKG

4H3121-AA = target: T27, 4H3121-AA; assay: two-hybrid library CCmax; conditions: mean of both orientations
T27 chain: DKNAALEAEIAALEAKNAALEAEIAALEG

4H3417-AA = target: T28, 4H3417-AA; assay: two-hybrid library CCmax; conditions: mean of both orientations
T28 chain: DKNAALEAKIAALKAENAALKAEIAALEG

4H3446-AA = target: T29, 4H3446-AA; assay: two-hybrid library CCmax; conditions: mean of both orientations
T29 chain: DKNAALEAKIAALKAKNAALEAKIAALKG

4H3591-AA = target: T30, 4H3591-AA; assay: two-hybrid library CCmax; conditions: mean of both orientations
T30 chain: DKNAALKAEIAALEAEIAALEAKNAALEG

4H3628-AA = target: T31, 4H3628-AA; assay: two-hybrid library CCmax; conditions: mean of both orientations
T31 chain: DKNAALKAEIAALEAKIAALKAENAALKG

4H3666-AA = target: T32, 4H3666-AA; assay: two-hybrid library CCmax; conditions: mean of both orientations
T32 chain: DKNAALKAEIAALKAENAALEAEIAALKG

4H3709-AA = target: T33, 4H3709-AA; assay: two-hybrid library CCmax; conditions: mean of both orientations
T33 chain: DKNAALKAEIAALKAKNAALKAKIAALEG

4H391-AA = target: T34, 4H391-AA; assay: two-hybrid library CCmax; conditions: mean of both orientations
T34 chain: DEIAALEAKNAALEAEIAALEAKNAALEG

4H3920-AA = target: T35, 4H3920-AA; assay: two-hybrid library CCmax; conditions: mean of both orientations
T35 chain: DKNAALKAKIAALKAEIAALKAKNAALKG

4H3939-AA = target: T36, 4H3939-AA; assay: two-hybrid library CCmax; conditions: mean of both orientations
T36 chain: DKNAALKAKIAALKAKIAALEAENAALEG

4H428-AA = target: T37, 4H428-AA; assay: two-hybrid library CCmax; conditions: mean of both orientations
T37 chain: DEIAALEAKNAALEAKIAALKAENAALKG

4H478-AA = target: T38, 4H478-AA; assay: two-hybrid library CCmax; conditions: mean of both orientations
T38 chain: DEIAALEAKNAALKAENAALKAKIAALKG

4H497-AA = target: T39, 4H497-AA; assay: two-hybrid library CCmax; conditions: mean of both orientations
T39 chain: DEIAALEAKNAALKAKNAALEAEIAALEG

4H656-AA = target: T40, 4H656-AA; assay: two-hybrid library CCmax; conditions: mean of both orientations
T40 chain: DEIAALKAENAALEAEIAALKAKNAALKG

4H675-AA = target: T41, 4H675-AA; assay: two-hybrid library CCmax; conditions: mean of both orientations
T41 chain: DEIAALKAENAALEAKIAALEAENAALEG

4H971-AA = target: T42, 4H971-AA; assay: two-hybrid library CCmax; conditions: mean of both orientations
T42 chain: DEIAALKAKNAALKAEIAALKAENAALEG

B1: O4 (peptide)
chain: DKIAALKAEIAALEYKNAALKAKNAALKG
B1 gave an interaction score (O4) of -2.15, an interaction score (O5) of -2.52 and an interaction score (O6) of -2.27. For the same binder, the interaction score (O7) was -2.43, the interaction score (O8) was -2.07 and the interaction score (O9) was -1.88.

B2: 4H2717-bN (peptide)
chain: DKIQQLKQENQELEQENQELKWKIQELEQ
B2 showed an interaction score (4H2717-bN) of 0.00236, an interaction score (4H2839-bN) of -0.648 and an interaction score (4H2915-bN) of -0.6. It also gave an interaction score (4H3057-bN) of -1.99, an interaction score (4H319-bN) of -0.684 and an interaction score (4H3277-bN) of -1.11. It also gave an interaction score (4H348-bN) of -0.289, an interaction score (4H40-bN) of -1.61 and an interaction score (4H477-bN) of 1.4. The interaction score (4H492-bN) was -0.854 and the interaction score (4H741-bN) was -2.58.

B3: 4H2248-AA (peptide)
chain: DKIAALEAENAALKAEIAALEAKNAALKG
In the case of B3, the interaction score (4H2248-AA) is reported as 2.16, the interaction score (4H2283-AA) is reported as 2.34 and the interaction score (4H2713-AA) is reported as -1.2. It also gave an interaction score (4H2742-AA) of -1.88, an interaction score (4H2948-AA) of -0.353 and an interaction score (4H2991-AA) of -0.183. It also gave an interaction score (4H3029-AA) of -1.79, an interaction score (4H3066-AA) of -1.25 and an interaction score (4H3102-AA) of 2.22. It also gave an interaction score (4H3121-AA) of -1.69, an interaction score (4H3417-AA) of 0.548 and an interaction score (4H3446-AA) of 0.189. For the same binder, the interaction score (4H3591-AA) was -1.39, the interaction score (4H3628-AA) was -1.59 and the interaction score (4H3666-AA) was -0.505. For the same binder, the interaction score (4H3709-AA) was -1.23, the interaction score (4H391-AA) was -1.16 and the interaction score (4H3920-AA) was -1.51. The interaction score (4H3939-AA) was -1.4, the interaction score (4H428-AA) was -0.478 and the interaction score (4H478-AA) was 0.536. For the same binder, the interaction score (4H497-AA) was -2.18, the interaction score (4H656-AA) was -0.26 and the interaction score (4H675-AA) was 0.827. It also gave an interaction score (4H971-AA) of 1.05.
